Data: paper PMC4055269 (Molecular Biology of the Cell, 2014)

Target: the molecule itself
Assay: SEC-MALS

B1: Drp1 C505A (enzyme, human, UniProt O00429-4 1-699, looked up)
chain: MEALIPVINKLQDVFNTVGADIIQLPQIVVVGTQSSGKSSVLESLVGRDLLPRGTGIVTRRPLILQLVHVSQEDKRKTTGEENGVEAEEWGKFLHTKNKLYTDFDEIRQEIENETERISGNNKGVSPEPIHLKIFSPNVVNLTLVDLPGMTKVPVGDQPKDIELQIRELILRFISNPNSIILAVTAANTDMATSEALKISREVDPDGRRTLAVITKLDLMDAGTDAMDVLMGRVIPVKLGIIGVVNRSQLDINNKKSVTDSIRDEYAFLQKKYPSLANRNGTKYLARTLNRLLMHHIRDCLPELKTRINVLAAQYQSLLNSYGEPVDDKSATLLQLITKFATEYCNTIEGTAKYIETSELCGGARICYIFHETFGRTLESVDPLGGLNTIDILTAIRNATGPRPALFVPEVSFELLVKRQIKRLEEPSLRCVELVHEEMQRIIQHCSNYSTQELLRFPKLHDAIVEVVTCLLRKRLPVTNEMVHNLVAIELAYINTKHPDFADAAGLMNNNIEEQRRNRLARELPSAVSRDKVASGGGGVGDGVQEPTTGNWRGMLKTSKAEELLAEEKSKPIPIMPASPQKGHAVNLLDVPVPVARKLSAREQRDCEVIERLIKSYFLIVRKNIQDSVPKAVMHFLVNHVKDTLQSELVGQLYKSSLLDDLLTESEDMAQRRKEAADMLKALQGASQIIAEIRETHLW
**Q.** How did the “stoichiometry N” value turn out when B1 was run?
**A.** 2
